These results are taken from patent publication US12460006B2, “Antibodies against integrin alpha 11 beta 1” (Momenta Pharmaceuticals, Inc., priority 2019, dated 2025).

For test [1], the system named is CHO-K1 cells expressing human α11. The experiment in a line: Cell adhesion inhibition (xCelligence), type I collagen. Type of test: cell-based. The conditions noted are these: CHO-K1 hu α11 cells; read-out: IC50 of blocking cell adhesion to type I collagen. As for the experimental part: 0.6×10^6 cells/mL were incubated with each antibody at a range of concentrations for 20 minutes at 37° C. E-Plate VIEW 96 PET plate coated with 100 ng/mL type I collagen or PBS overnight at room temperature was blocked in 3% BSA for 1 house at room temperature. After washing the plate with PBS, cell and antibody mixture was added to the wells and the plate was places into an xCelligence machine. Cell adhesion was recorded over 6 hours. The time point of maximum cell adhesion was used for comparison relative to control.
A CHO-K1 hu α11 cell line was used to assess the ability of mAbs to block α11β1-mediated binding to type I collagen. […] In the “Untreated” condition, cells were plated on type I collagen but no antibody was added and in the “Uncoated” condition, cells were seeded onto BSA-coated wells containing no type I collagen. Statistics were performed using one-way ANOVA followed by Dunnett's multiple comparisons test. […] Therefore, it is possible that these mAbs bind on an α11β1 domain that keeps the integrin in a low or intermediate affinity state. […] Nine human mAbs were also tested for their ability to inhibit the binding of human CHO-α11 cells to type I collagen.

Test [2] relates to CHO cell lines expressing α11. Kind of test: Collagen gel contraction assay. In kind it is cell-based, human. The conditions noted are these: vs untreated. As for the experimental part:
24-well plates were blocked with 2% BSA in PBS overnight at 37° C. The following day, the plates were washed 3 times with PBS before being used in the assay. Human CHO cell lines expressing α11 were harvested and resuspended at 1.25×10^6 in ExpiCHO Expression Medium (Gibco™ Cat #A2910002). The collagen gel solution was prepared by diluting 3 mg/mL stock collagen type I (Gibco™ Collagen I Rat Protein, Tail Cat #A1048301) to 1 mg/mL in the media containing the CHO cells. Sodium hydroxide was added to the solution to neutralize the pH and 400 μL of the collagen solution was added to each well of the 24-well plates. For the wells where the antibodies were included in the collagen gel solution, CHO cells were prepared at 2.5×10^6 and the antibodies were prepared at 2× final concentration in ExpiCHO media. The cells and antibodies were then combined 1:1 before the addition of the stock collagen type 1. The gels were allowed to polymerize for 60 minutes at 37° C. Antibodies were added to the ExpiCHO media, which was then layered on top of the polymerized gel (400 μL/well). The gels were incubated for 6 days at 37° C. before gel contraction was quantified. Images of each well were analyzed using Image J and gel contraction was determined as a percentage of the initial gel area.
Selected exemplary antibodies were tested for the ability to inhibit cell-mediated 3D gel contraction because this ability is directly linked to the functionality of the exemplary antibodies.

Test [3] has as its target T1, α11β1 I Domain (Homo sapiens, UniProt Q9UKX5).
T1 sequence (Q9UKX5 164-345 limits assumed): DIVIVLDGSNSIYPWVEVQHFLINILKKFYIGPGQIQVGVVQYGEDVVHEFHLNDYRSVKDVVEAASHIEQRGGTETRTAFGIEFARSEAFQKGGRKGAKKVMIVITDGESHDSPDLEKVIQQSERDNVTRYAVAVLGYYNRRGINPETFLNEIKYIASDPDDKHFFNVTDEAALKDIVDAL
The experiment in a line: SPR binding to α11β1 I Domain. The conditions noted are these: SPR data. As for the experimental part:
(§1) The affinity of antibodies for human α11β1 was measured by surface plasmon resonance assay (SPR). Affinity was measured at pH 7.6 and 25° C. with a Biacore T200 instrument. Anti-HIS antibody was immobilized on the SPR sensor surface using EDC/NHS covalent attachment. HIS-tagged human α11β1 was captured on the sensor surface and a single-cycle kinetics assay was used. Increasing concentrations of test antibody were injected in series over the sensor-bound α11β1. Dissociation was monitored for 1000 seconds. A sensor surface with only anti-HIS antibody and a series of blank injections were used to double-reference subtract the data. A 1:1 Langmuir model was fit to the data to estimate the kinetic association and dissociation constants. The affinity (equilibrium dissociation constant) of the interaction was calculated by dividing the kinetic dissociation constant by the kinetic association constant. Between injection cycles α11β1 and bound antibody were removed with an injection of 10 mM glycine at pH 1.5.
(§2) The binding affinity of antibodies for the α11β1 Headpiece and α11β1 I Domain as measured by SPR is shown in FIG. 10A and FIG. 10B, respectively.
(SPR reads the build-up and loss of mass on a sensor chip optically.)

Test [4] has as its system α11β1 Headpiece. The experiment in a line: SPR binding to α11β1 Headpiece. More on the design: species or system human. As to conditions: SPR data. As for the experimental part: as §1, §2

As usually defined, the IC50 is the concentration at which inhibition is half-maximal.

B1: 1994_01_C07: fully human anti-α11β1 mAb (phage display); HCDR3 SEQ ID NO: 267, LCDR3 SEQ ID NO: 271 (antibody, V domains shown)
VH: QVQLVQSGAEVKKPGASVKVSCKASGYTFTSYGISWVRQAPGQGLEWMGWISAYNGNTNYAQKLQGRVTMTTDTSTSTAYMELRSLRSDDTAAYYCARVTGITGTTIDPWGQGTMVTVSS
VL: DIQMTQSPSSLSASVGDRVTITCRASQSISSYLNWYQQKPGKAPKLLIYDASSLESGVPSRFSGSGSGTEFTLTISSLQPDDFAVYYCQQYNNWPQTFGQGTKVEIK
For the molecule B1, the concentration for half-maximal inhibition (IC50) in test [1] is 3.3 nM. In test [2], the “inhibition of CHO-hu α11-mediated collagen gel contraction” value is given as “inhibited CHO-hu α11-mediated collagen gel contraction”. In addition, the “binding to the I domain of α11β1” value in test [3] is “do not bind”. Moreover, the “binding to the headpiece domain of α11β1” value in test [4] is reported as “do not bind”.

B2: 1994_01_D12: fully human anti-α11β1 mAb (phage display); HCDR3 SEQ ID NO: 267, LCDR3 SEQ ID NO: 334 (antibody, V domains shown)
VH: QVQLVQSGAEVKKPGSSVKVSCKASGYTFTSYGISWVRQAPGQGLEWMGWISAYNGNTNYAQKLQGRVTMTTNTSTSTAYMELRSLRSDDTAVYYCARVTGITGTTIDPWGQGTLVTVSS
VL: DIQMTQSPSSLSASVGDRVTITCRASQSISSYLNWYRQKPGKAPKLLIYAASSLQSGVPSRFSGSGSGTDFTLTISSLQPEDAATYYCQQYDSQSGTFGQGTKLEIK
Turning to B2, the “inhibition of CHO-hu α11-mediated collagen gel contraction” value in test [2] is on record as “inhibited CHO-hu α11-mediated collagen gel contraction”.
